Reference: article PMC3092483

Legend:
[1] = biological target: GST-C2AB fusion protein of synaptotagmin I (wild type) (Drosophila); test: pull-down
[2] = biological target: GST-C2B fusion protein of synaptotagmin I (wild type) (Drosophila); test: pull-down
[3] = biological target: GST-C2B fusion protein of synaptotagmin I with the syt^B-IE mutation (I420E) (Drosophila); test: pull-down
[4] = biological target: GST-C2AB fusion protein of synaptotagmin I with the syt^B-IE mutation (I420E) (Drosophila); test: pull-down
full length t-SNAREs = test: co-flotation

Row | Substance | fold increase of binding by Ca2+ over EGTA [1] [fold] | increase of binding by Ca2+ over EGTA [1] [units] | increase of binding by Ca2+ over EGTA [2] [units] | increase of binding by Ca2+ over EGTA [3] [units] | fold increase of binding by Ca2+ over EGTA [4] [fold] | increase of binding by Ca2+ over EGTA [4] [units] | percent of wild type binding (% of wild type levels) (full length t-SNAREs)
1 | full length t-SNAREs (complex) | 2.4 | 0.2 | 0.116 | 0.105 | 4.5 | 0.112 | 
2 | synaptotagmin C2AB domain with the syt^B-IE mutation (I420E), as used in the co-flotation assay (domain or fragment) |  |  |  |  |  |  | 70
